Experiments:
[1] = biological target: Mouse GIP receptor (mouse) (UniProt Q0P543)
[2] = biological target: Human GIP receptor (human) (UniProt P48546)
[3] = biological target: Mouse GIP receptor (mouse) (UniProt Q0P543); assay: radioligand binding
[4] = biological target: Human GIP receptor (human) (UniProt P48546); assay: radioligand binding
Rat GIP receptor (rat) [5] = biological target: Rat GIP receptor (rat) (UniProt P43219)
Rat GIP receptor (rat) [6] = biological target: Rat GIP receptor (rat) (UniProt P43219); remark: listed apart in the source
pigs = conditions: ref Deacon et al., 2006; cited from earlier work
GIP receptor = conditions: read-out: affinity (IC50); ref Deacon et al., 2006; cited from earlier work
perfused rat pancreas = conditions: 100 nM (Pro3)GIP, 1 nM GIP, 10 mM arginine, 7 mM glucose, radioimmunoassay, N=6-9
[7] = tested on: perfused pancreata from GIPR KO mice; conditions: 100 nM mouse (Pro3)GIP, 1 nM mouse GIP, 10 mM arginine, 7 mM glucose, N=3
Rat GIP receptor (rat) [8] = biological target: Rat GIP receptor (rat) (UniProt P43219); assay: radioligand binding
Rat GIP receptor [9] = biological target: T1, Rat GIP receptor (rat, UniProt P43219 19-455); assay: radioligand binding
T1 sequence: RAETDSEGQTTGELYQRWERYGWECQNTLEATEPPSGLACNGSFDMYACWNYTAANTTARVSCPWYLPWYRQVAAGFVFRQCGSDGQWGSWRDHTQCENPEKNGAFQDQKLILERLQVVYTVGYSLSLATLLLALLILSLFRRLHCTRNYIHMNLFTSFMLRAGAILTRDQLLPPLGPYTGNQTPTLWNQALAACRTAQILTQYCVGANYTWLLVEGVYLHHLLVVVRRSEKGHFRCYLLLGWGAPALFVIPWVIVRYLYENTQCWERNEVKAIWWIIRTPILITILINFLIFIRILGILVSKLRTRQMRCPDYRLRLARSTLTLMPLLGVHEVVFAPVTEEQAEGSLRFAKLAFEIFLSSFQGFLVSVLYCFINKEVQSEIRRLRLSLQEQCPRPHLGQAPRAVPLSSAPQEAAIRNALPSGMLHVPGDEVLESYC

Human GIP receptor [10] = biological target: T2, Human GIP receptor (human, UniProt P48546 22-466); assay: radioligand binding
T2 sequence: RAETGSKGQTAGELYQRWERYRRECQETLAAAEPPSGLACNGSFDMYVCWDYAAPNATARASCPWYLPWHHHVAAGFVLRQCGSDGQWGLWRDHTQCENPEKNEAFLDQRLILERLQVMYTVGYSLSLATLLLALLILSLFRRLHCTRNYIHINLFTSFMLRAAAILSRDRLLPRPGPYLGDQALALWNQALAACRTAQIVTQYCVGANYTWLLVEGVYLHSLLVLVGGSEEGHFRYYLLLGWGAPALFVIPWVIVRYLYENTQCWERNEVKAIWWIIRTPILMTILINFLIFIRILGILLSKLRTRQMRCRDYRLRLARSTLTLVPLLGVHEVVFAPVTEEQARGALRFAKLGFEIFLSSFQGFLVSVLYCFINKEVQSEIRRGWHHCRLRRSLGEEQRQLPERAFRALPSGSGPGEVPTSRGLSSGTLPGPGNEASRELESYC

Rat GIP receptor [11] = biological target: T1, Rat GIP receptor; assay: cell-based or functional assay
Mouse GIP receptor [12] = biological target: T3, Mouse GIP receptor (mouse, UniProt Q0P543 19-460); assay: cell-based or functional assay
T3 sequence: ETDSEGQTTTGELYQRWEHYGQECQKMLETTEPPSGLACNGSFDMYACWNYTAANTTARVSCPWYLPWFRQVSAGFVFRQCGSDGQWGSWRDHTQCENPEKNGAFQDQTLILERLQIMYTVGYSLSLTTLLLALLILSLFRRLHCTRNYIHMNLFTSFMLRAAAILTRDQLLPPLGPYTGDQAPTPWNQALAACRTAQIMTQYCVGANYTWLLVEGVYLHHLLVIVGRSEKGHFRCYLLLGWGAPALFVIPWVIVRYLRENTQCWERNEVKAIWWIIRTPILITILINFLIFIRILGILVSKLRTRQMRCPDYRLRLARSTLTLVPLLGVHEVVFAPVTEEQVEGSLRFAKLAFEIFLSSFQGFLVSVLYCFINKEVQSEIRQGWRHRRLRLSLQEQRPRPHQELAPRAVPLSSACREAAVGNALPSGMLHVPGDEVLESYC

Human GIP receptor [13] = biological target: T2, Human GIP receptor; assay: cell-based or functional assay
Mouse GIP receptor [14] = biological target: T3, Mouse GIP receptor; assay: radioligand binding

Human (Pro3)GIP (peptide)
EC50 of cAMP accumulation in transfected COS-7 cells [1]: 92 nM
Emax of cAMP accumulation in transfected COS-7 cells [1]: 71
EC50 of cAMP accumulation in transfected COS-7 cells [2]: 4.7 nM
logIC50 [3]: -7.4
logIC50 [4]: -8

Rat (Pro3)GIP (from UniProt Q06145 44-85) (peptide)
EC50 of cAMP accumulation in transfected COS-7 cells [1]: 38 nM
Emax of cAMP accumulation in transfected COS-7 cells [1]: 57
EC50 of cAMP accumulation in transfected COS-7 cells (Rat GIP receptor (rat) [5]): 13 nM
Emax of cAMP accumulation in transfected COS-7 cells (Rat GIP receptor (rat) [5]): 64
Emax of cAMP accumulation in transfected COS-7 cells [2]: 73
Emax of cAMP accumulation, normalised to rat GIP on the rat receptor (Figure 2B) (Rat GIP receptor (rat) [6]): 50%
logIC50 [3]: -8.1

GIP(3–42): naturally occurring GIP metabolite (EGTFISDYSIAMDKIHQQDFVNWLLAQKGKKNDWKHNITQ; Gastric inhibitory polypeptide; UniProt P09681 54-93, looked up, fragment)
antagonistic effect in vivo (pigs): no antagonistic effect could be demonstrated
IC50 (GIP receptor): 22 nM

N=C(N)NCCC[C@H](N)C(=O)O [arginine]
glucagon secretion (perfused rat pancreas): induced secretion of the respective hormones
insulin secretion (perfused rat pancreas): induced secretion of the respective hormones
somatostatin secretion (perfused rat pancreas): induced secretion of the respective hormones
glucagon secretion [7]: induced secretion of the respective hormones
insulin secretion [7]: induced secretion of the respective hormones
somatostatin secretion [7]: induced secretion of the respective hormones

Mouse (Pro3)GIP (from UniProt P48756 44-85) (peptide)
EC50 of cAMP accumulation in transfected COS-7 cells [1]: 29 nM
Emax of cAMP accumulation in transfected COS-7 cells [1]: 59
EC50 of cAMP accumulation in transfected COS-7 cells (Rat GIP receptor (rat) [5]): 15 nM
Emax of cAMP accumulation in transfected COS-7 cells (Rat GIP receptor (rat) [5]): 61
Emax of cAMP accumulation in transfected COS-7 cells [2]: 67
logIC50 [3]: -8.3
logIC50 (Rat GIP receptor (rat) [8]): -8.1
logIC50 [4]: -8.1

YAEGTFISDYSIAMDKIRQQDFVNWLLAQRGKKSDWKHNITQ (ligand) [Mouse GIP (glucose-dependent insulinotropic polypeptide, GIP(1-42))]
logIC50 (Rat GIP receptor [9]): -8.9
Ki (Human GIP receptor [10]): 2 nM
logIC50 (Human GIP receptor [10]): -8.7
Emax of cAMP accumulation in transfected COS-7 cells (Rat GIP receptor [11]): 120
Emax of cAMP accumulation in transfected COS-7 cells (Mouse GIP receptor [12]): 156
Emax of cAMP accumulation in transfected COS-7 cells (Human GIP receptor [13]): 99

YAEGTFISDYSIAMDKIHQQDFVNWLLAQKGKKNDWKHNITQ (ligand) [Human GIP (glucose-dependent insulinotropic polypeptide, GIP(1-42))]
Emax of cAMP accumulation in transfected COS-7 cells (Rat GIP receptor [11]): 100

YAEGTFISDYSIAMDKIRQQDFVNWLLAQKGKKNDWKHNLTQ (ligand) [Rat GIP (glucose-dependent insulinotropic polypeptide, GIP(1-42))]
logIC50 (Mouse GIP receptor [14]): -9.6
logIC50 (Human GIP receptor [10]): -8.9
Emax of cAMP accumulation in transfected COS-7 cells (Rat GIP receptor [11]): 117
Emax of cAMP accumulation in transfected COS-7 cells (Mouse GIP receptor [12]): 144
Emax of cAMP accumulation in transfected COS-7 cells (Human GIP receptor [13]): 113

— publication PMC4737396 (British Journal of Pharmacology, 2015)
